# B1: TPR t1 (parent)
# chain: GACCAAUCUGCCCUCAGAGCUCGAGAACAUCUUCGGAUGCAGAGGAGGCAGGCUUCGGUGGCGCGAUAGCGCCAACGUCCUCAACCUCCAAUGCAUCCCACCACAUGAUGAUGCCUGAAGAGCCUUGGUUUUUUG
# Variants of: B1
# Test: polymerase ribozyme fitness, log enrichment relative to wild type (log ratio); higher = more active; in vitro selection for triplet polymerase activity
# Procedure, shortened: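 One round of in vitro selection, in triplicate, was applied to PCR-built, transcribed mutant libraries of each subunit of a heterodimeric triplet polymerase ribozyme. The steps were annealing with a biotinylated primer, partner subunit and triplets, incubation frozen at −7 °C, gel excision of extended constructs, streptavidin-bead capture and RT-PCR. Fitness is the logarithm, base 2, of genotype enrichment over wild-type enrichment from inverse-variance-weighted replicate averages of Illumina-sequenced inputs and outputs, keeping genotypes with ≥10 input reads and ≥1 read per output.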
row,Variant,polymerase ribozyme fitness (log ratio)
1,U9G C31A A46C G71A G110A,-6.51
2,U9A G77U U131A,0.362
3,U9G C11G,-4.02
4,U9A G52U C72A C88U C124A,1.2
5,U9G A27C C62U C70U C98U,-6.21
6,U9G C86G A119U,0.167
7,U9A G52A C56A,-1.03
8,U9G C89A A100U U116A,-4.84
9,U9C C104U,0.605
10,U9G A27U A100U,-3
11,U9G U32C U59A U131A,-0.0228
12,U9C A37C C114G G117U,-3.29
13,U9G C13U A91U G113A A119C G128A,-4.02
14,U9C G60A C80U C89U,-1.82
15,U9C G60U C82U U96C,0.305
16,U9C C56G C88G,-1.64
17,U9C G36U G47U,-2.03
18,U9G A16U G19U A37G A43U G69U C101A,-4.92
19,U9G G51A G60A C94A,-3.72
20,U9G C13A U59A,-0.0719
21,U9A G69C G113C C115U,-4.52
22,U9G G17C A26G,-3.96
23,U9G G45U A74C G77A U112C,0.536
24,U9G C34U A68G U78C C97U A111U,-6.62

row,Variant,polymerase ribozyme fitness (log ratio)
1,U9G C11G C40U,-4.28
2,U9G C11A U78C,-0.41
3,U9G C13U C104A,-1.55
4,U9C C40U A43G C49G U96G A119G U131A,-3.12
5,U9G A43G C49A U81A G127U U133G,-2.11
6,U9G G42C A103G C124A,-6.09
7,U9A U96A C124U,1.28
8,U9A G48U C64U C72A,0.0767
9,U9A G77U,1.05
10,U9C A27C,-2.15
11,U9C G69U C72G,-1.2
12,U9G C22A C34A C82U U130C,-6.39
13,U9G C13A,-0.971
14,U9C G10C C62G C72A A111G U125C,-4.6
15,U9G A43U G52U C72A C82A,-2.31
16,U9G C70A C86A C123U,-0.996
17,U9C C49A C53U C88U U133A,-0.445
18,U9C G35U A50U,-6.01
19,U9G G61A C76G,-4.18
20,U9G A46U G60U A91C G117A,-0.876
21,U9C A43G G61A C89U,-1.55
22,U9G C56G U81G,-1.23
23,U9G G19A G110C U112C C123G C124G,-7.8
24,U9G G69U,0.642

row,Variant,polymerase ribozyme fitness (log ratio)
1,U9G C11U A27G G47C U78C C86U,-2.22
2,U9C C79A G128C,-2.56
3,U9G G23U A43U G71A G110C C124G U126G,-8.22
4,U9G U59C C101U,-0.449
5,U9C A26G A27U U54A C82G,-5.13
6,U9G A95G,0.394
7,U9G G23A C31U U38A C104A U112A A121C U126G,-6.73
8,U9C C12A,0.347
9,U9G G107U,-3.93
10,U9G C12G C53A C99U C102U,-5.32
11,U9G G71A C80U C98U G110U,-6.92
12,U9G A26G G45U C73U C99U U112A,-4.85
13,U9C U78G A103U,-5.95
14,U9C C15G U78G U96C C124U,-0.775
15,U9G A83C,0.502
16,U9C A26U G57C A84U,-3.11
17,U9C A41U C72U U78A G93C,-1.36
18,U9G A18U C56A U87G,-2.1
19,U9C C12U G39U C70A A111U C124A,-5.75
20,U9G G63U,-0.815
21,U9C C72A C76U G77U,-2.24
22,U9C G60A C102G G110C G128U,-7.66
23,U9C C73U,0.362
24,U9G G69U G107U,-2.73

row,Variant,polymerase ribozyme fitness (log ratio)
1,U9G C12G U78C,0.323
2,U9G C53G C115A G127U,-0.417
3,U9C G17U U54C C79A C98U C101A,-5.9
4,U9G U38G,-0.556
5,U9G,0.36
6,U9C,0.614
7,U9A G110U,-0.815
8,U9A G107A,-4.08
9,U9C G42A,-1.15
10,U9G A16U U59C U81A C94A,-1.92
11,U9C C11U,0.404
12,U9G A16C A68U U109A,-6.08
13,U9G C13A G110A,-1.62
14,U9G U32C G52C,-0.471
15,U9C G45A G48U,-0.16
16,U9C G10A G52A G63U,-2.31
17,U9G G45C C79A U130C,-2.2
18,U9G C12G G60U,0.216
19,U9G A84C C98A C123A,-4.03
20,U9C C22U G58A G61C C114A,-4.7
21,U9C A27G G45A G57U C115G,-3.94
22,U9G C11G C94U A111C,-4.33
23,U9G C80U U106C,0.49
24,U9A G117C,-1.79

row,Variant,polymerase ribozyme fitness (log ratio)
1,U9A G117A,1.04
2,U9G U78C A121U,1.6
3,U9A G113A,-0.103
4,U9C G60U,0.0949
5,U9C C40G G63U G69U C79G C82U A118U A119G G135U,-4.3
6,U9C C70G,-1.43
7,U9A G110U G117A,-2.51
8,U9C C94A A100C G127C G135U,-3
9,U9C U116C U129A,-0.962
10,U9G G36A C70U,-0.939
11,U9G G63A U92G C98G C115G G128A,-6.12
12,U9C C34U G69U C72U C101A G117A U125A U130G,-6.7
13,U9G G23A,-5.2
14,U9G U54A C56A G71A,-2.22
15,U9A G51U G52U U116A,-3.29
16,U9G G61A C80A A95C G110U C115A A119C,-7.18
17,U9G G47A C76A C82G U116A,-2.05
18,U9G G45A A46C U106C,-0.292
19,U9G A37U C40U G45A C104U,-0.895
20,U9C C40A U130A,-0.631
21,U9G G10C A29U G42U A43G A46C C94U,-4.04
22,U9G G47C C80U,-3.21
23,U9C G36U G63C U112C G128C,-1.66
24,U9C C11A A18C C53G C80G C99A G110U,-6.83

row,Variant,polymerase ribozyme fitness (log ratio)
1,U9A U30C G47U,-3.54
2,U9C G107U U112A A119G,-4.69
3,U9G C70U C98U,-1.09
4,U9G C15U A90G C124A,1.55
5,U9G C73A,-0.668
6,U9G A24G C73U,-0.355
7,U9C G48U C123U,1.12
8,U9G A26C A37G A111U U131C,-5.09
9,U9C C13U A37C G39U G93A,-5.35
10,U9G G48A A111G,0.633
11,U9G G36U G57U,-0.893
12,U9C A37U,0.172
13,U9C G39A G63U,-1.02
14,U9G A121U C123U,2.06
15,U9C C15U G42C,-0.305
16,U9C G113A C114G,-0.741
17,U9C G36C A50U C70A A75U U106A,-6.28
18,U9G G61A A66U C82A,-1.09
19,U9C A41C A118U A119G,0.0807
20,U9A G110A A111U C115U,-6.7
21,U9G C115U,-0.945
22,U9C A119U C123U,2.07
23,U9C A41C,-0.191
24,U9G U21A G127A,-0.983

row,Variant,polymerase ribozyme fitness (log ratio)
1,U9G A121G U131A,1.98
2,U9C A37U G63A C80U C82G C85G,-2.21
3,U9C U92A,-1.27
4,U9C G35U C101A,-5.93
5,U9A U116C U125A,0.151
6,U9G G51U G63C,-3.1
7,U9C A50U G52C,-2.28
8,U9C C56A A83C,0.00737
9,U9G C34A A41G,-3.4
10,U9G C28U G117C U131G,-4.94
11,U9G G71A,-0.592
12,U9C C40U C62G G117C,-5.48
13,U9C C70U C102G,-6.28
14,U9G G77A,0.17
15,U9G C13A C28U G47U C86G,-1.92
16,U9G C11A U87A,-0.55
17,U9G U54C G69A C80U,-2.99
18,U9G C56G A103U,-4.39
19,U9A G52A G65C U126C,-5.92
20,U9G C53A G71U C86U A100U G110U,-4.22
21,U9C G61A C89U A105C,-3.08
22,U9C U14A G36C,-1.95
23,U9G G36A U87C C99U,-3.41

# From the RNAGym collection of RNA variant scans (doi:10.1073/pnas.2313332121)
